Assay results: US20230348614A1 (VISTERRA, published 2023)

How the values were obtained:
[1] = target: T1, G184A (Homo sapiens, UniProt P18827); assay: alanine scan: flow cytometry on HEK-293T cells expressing the mutant clone, 4320 Fab 0.50 ug/mL, normalised to WT CD138; Range %WT Binding 17; Normalized 4320 vs. BB4 60.6
T1 construct: clone of the alanine scanning library on HEK-293T cells; m17 with one substitution; also called CD138 G184A
T1 sequence (CD138 (SDC1), full length, point mutant, looked up): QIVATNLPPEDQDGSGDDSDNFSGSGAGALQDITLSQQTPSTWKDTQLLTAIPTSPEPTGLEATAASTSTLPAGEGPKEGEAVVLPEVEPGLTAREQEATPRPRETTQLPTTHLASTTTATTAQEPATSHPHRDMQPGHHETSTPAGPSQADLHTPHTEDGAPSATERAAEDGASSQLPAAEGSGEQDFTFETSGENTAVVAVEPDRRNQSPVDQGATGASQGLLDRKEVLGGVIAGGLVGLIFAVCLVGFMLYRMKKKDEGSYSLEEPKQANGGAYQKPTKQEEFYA
Description: (§1) Serial dilutions of each MAb were tested for immunoreactivity against cells expressing target protein (WT) or vector alone. Validation of target expression and optimization of detection and binding of anti-CD138 antibodies both by flow cytometry was completed in replicate (N=4). The optimal screening concentration for each MAb was determined based on the raw signal values and signal-to-background calculations specifically optimized for each test article. Optimized parameters included the use of 10% goat serum as blocking reagent. Primary antibody staining was for 60 minutes at 25° C. Wash buffer include phosphate buffered saline (divalent metal ion free), pH 7.4. […] Secondary antibodies were diluted 1:400 and incubated for 30 minutes at 25° C.
(§2) Library screens of very-high-affinity mAbs can fail to yield critical residues for antibody binding due to deficiencies of such an assay to detect and differentiate critical vs. less critical binding based on affinity and quantification of cell binding. One common approach in the literature is the use of monovalent antibody derived fragments such as Fab usually weakens binding sufficiently to allow identification of critical residues for binding. […] Binding of each test Ab to each mutant clone in the alanine scanning library was determined, in duplicate, and likewise evaluated by flow cytometry.

[2] = target: T2, T143A (Homo sapiens, UniProt P18827); assay: alanine scan: flow cytometry on HEK-293T cells expressing the mutant clone, 4320 Fab 0.50 ug/mL, normalised to WT CD138; Range %WT Binding 6; Normalized 4320 vs. BB4 53.2
T2 construct: clone of the alanine scanning library on HEK-293T cells; m17 with one substitution; also called CD138 T143A
T2 sequence (CD138 (SDC1), full length, point mutant, looked up): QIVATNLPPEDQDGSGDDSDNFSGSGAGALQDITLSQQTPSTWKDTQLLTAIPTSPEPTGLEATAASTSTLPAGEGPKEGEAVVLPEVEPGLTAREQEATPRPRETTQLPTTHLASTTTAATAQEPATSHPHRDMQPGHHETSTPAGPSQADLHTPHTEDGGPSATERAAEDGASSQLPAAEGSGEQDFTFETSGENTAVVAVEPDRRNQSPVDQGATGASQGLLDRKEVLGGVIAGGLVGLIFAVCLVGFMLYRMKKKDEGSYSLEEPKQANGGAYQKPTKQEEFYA
Description: as §1, §2

[3] = target: T3, L114A (Homo sapiens, UniProt P18827); assay: alanine scan: flow cytometry on HEK-293T cells expressing the mutant clone, 4320 Fab 0.50 ug/mL, normalised to WT CD138; Range %WT Binding 15; Normalized 4320 vs. BB4 30.8
T3 construct: clone of the alanine scanning library on HEK-293T cells; m17 with one substitution; also called CD138 L114A
T3 sequence (CD138 (SDC1), full length, point mutant, looked up): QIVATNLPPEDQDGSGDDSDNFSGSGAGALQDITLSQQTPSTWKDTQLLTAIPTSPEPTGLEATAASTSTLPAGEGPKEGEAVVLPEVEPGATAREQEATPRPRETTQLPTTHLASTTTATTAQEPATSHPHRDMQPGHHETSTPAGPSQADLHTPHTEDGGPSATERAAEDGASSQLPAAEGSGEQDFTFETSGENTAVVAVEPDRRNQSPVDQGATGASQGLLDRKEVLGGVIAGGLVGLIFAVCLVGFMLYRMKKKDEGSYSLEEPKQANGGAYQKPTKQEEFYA
Description: as §1, §2

[4] = target: T4, G169A (Homo sapiens, UniProt P18827); assay: alanine scan: flow cytometry on HEK-293T cells expressing the mutant clone, 4320 Fab 0.50 ug/mL, normalised to WT CD138; Range %WT Binding 2; Normalized 4320 vs. BB4 44.4
T4 construct: clone of the alanine scanning library on HEK-293T cells; m17 with one substitution; also called CD138 G169A
T4 sequence (CD138 (SDC1), full length, point mutant, looked up): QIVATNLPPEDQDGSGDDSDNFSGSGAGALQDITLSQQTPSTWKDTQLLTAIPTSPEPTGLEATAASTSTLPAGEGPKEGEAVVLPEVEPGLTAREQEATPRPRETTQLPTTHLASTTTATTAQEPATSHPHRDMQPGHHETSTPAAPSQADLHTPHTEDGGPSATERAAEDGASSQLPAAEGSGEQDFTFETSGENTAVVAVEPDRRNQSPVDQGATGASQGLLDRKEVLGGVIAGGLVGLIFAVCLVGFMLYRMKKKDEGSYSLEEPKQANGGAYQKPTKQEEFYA
Description: as §1, §2

[5] = target: T5, G241A (Homo sapiens, UniProt P18827); assay: alanine scan: flow cytometry on HEK-293T cells expressing the mutant clone, 4320 Fab 0.50 ug/mL, normalised to WT CD138; Range %WT Binding 14; Normalized 4320 vs. BB4 53.5
T5 construct: clone of the alanine scanning library on HEK-293T cells; m17 with one substitution; also called CD138 G241A
T5 sequence (CD138 (SDC1), full length, point mutant, looked up): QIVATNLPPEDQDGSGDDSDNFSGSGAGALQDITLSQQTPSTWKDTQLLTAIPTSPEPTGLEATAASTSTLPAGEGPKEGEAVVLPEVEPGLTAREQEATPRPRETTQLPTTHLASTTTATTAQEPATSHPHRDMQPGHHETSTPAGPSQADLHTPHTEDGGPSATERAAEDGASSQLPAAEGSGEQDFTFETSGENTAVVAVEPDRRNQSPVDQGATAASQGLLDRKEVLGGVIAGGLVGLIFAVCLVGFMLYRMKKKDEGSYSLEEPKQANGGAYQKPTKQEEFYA
Description: as §1, §2

B1: Fab fragment of mAb 4320 (Fab, V domains shown)
VH: QVQLVQSGAEVKKPGASVKVSCKASGYSFSSYYMHWVRQAPGQGLEWMGTIHPSDSTTNYNQKFQGRVTMTVDTSTRTAYMELSSLRSEDTAVYYCANFVYWGQGTTVTVSS
VL: DIVMTQTPLSLSVTPGQPASISCKSSKSLLYKDGKTYLNWFLQKPGQSPQLLIYVVSTRASGVPDRFSGSGSGTDFTLKISRVEAEDVGVYYCQQLVEYPYTFGQGTKLEIKR
modifications: N-terminal Q1 observed as pyroglutamic acid (PCA) in the 138-2-5 complex
notes: In the crystal structures heavy chain residues 1-213 were traced; also called Fab4320
Mean %WT Binding [1]: 60.1 %WT
Mean %WT Binding [2]: 30.8 %WT
Mean %WT Binding [3]: 36.2 %WT
Mean %WT Binding [4]: 13.2 %WT
Mean %WT Binding [5]: 53.5 %WT
